From US20250313625A1 (ELPISCIENCE SUZHOU BIOPHARMA, published 2025)
Residue numbers refer to the chain shown, from its start. Numbers in names are those of the source. Like-named read-outs stand apart in the source and are kept apart here. Blank lines part the entries; values can stand above or below the binder they belong to.

Legend:
[1] = target: T1, human LAG3 ECD recombinant protein (plate coated, tag not stated) (human, UniProt P18627 23-450); test: competitive ELISA format I: His-FGL1 binding to coated LAG3 ECD
T1 construct: extracellular domain
T1 sequence (looked up): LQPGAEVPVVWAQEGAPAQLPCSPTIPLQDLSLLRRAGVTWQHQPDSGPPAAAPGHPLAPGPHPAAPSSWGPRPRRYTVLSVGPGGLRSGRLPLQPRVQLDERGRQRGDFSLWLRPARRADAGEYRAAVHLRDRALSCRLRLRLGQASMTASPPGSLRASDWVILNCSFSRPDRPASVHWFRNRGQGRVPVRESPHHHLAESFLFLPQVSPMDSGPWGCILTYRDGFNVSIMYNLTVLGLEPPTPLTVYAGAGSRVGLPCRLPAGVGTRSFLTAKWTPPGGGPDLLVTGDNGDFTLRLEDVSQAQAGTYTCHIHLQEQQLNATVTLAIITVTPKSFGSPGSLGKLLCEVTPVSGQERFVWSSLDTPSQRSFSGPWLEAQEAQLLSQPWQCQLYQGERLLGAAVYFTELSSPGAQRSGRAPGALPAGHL
Procedure: (§1) After washing, HRP labeled anti-His 2nd antibody (Sigma) was added and incubated at 37° C. for 1 hour. Then, 100 μl/well of TMB solution (Biotechnology) was added. After incubation for 15 minutes at room temperature, the reaction was stopped by the addition of 50 μl of 1N HCl. OD 450 nm was read. […] After washing, HRP labeled anti-SA 2nd antibody (Sigma) was added and incubated at 37° C. for 1 hour. Then, 100 μl/well of TMB solution (Biotechnology) was added. After incubation for 15 minutes at room temperature, the reaction was stopped by the addition of 50 μl of 1N HCl. OD 450 nm was read. […] The competition assay of format III is a competitive FACS assay. […] After washing, dye labeled anti-His 2nd antibody (Sigma) was added and incubated at 37° C. for 1 hour. Fluorescence intensity was detected.

[2] = target: T2, mFc tagged human LAG3 ECD recombinant protein (human, UniProt P18627 23-450); test: competitive FACS: mFc-LAG3 ECD binding to Raji cells (MHC II)
T2 construct: extracellular domain; purchased from Biointron; not shown: mouse IgG Fc (mFc) tag
T2 sequence (looked up): T1 sequence (looked up)
Procedure: (§2) Activity of the purified chimeric antibodies to block LAG3 and MHC II interaction was determined by competitive FACS assay. […] After washing, dye labeled anti-mouse Fc 2nd antibody (Sigma) was added and incubated at 37° C. for 1 hour. Fluorescence intensity was detected.

[3] = target: T3, hFc tagged human LAG3 ECD recombinant protein (human, UniProt P18627 23-450); test: competitive ELISA format II: biotin hFc-LAG3 ECD binding to coated His-FGL1
T3 construct: range 23-450; also called biotin labelled hFc tagged human LAG3 ECD; not shown: human IgG Fc tag
T3 sequence (looked up): T1 sequence (looked up)
Procedure: as §1

[4] = target: T4, human LAG3, full length, stably expressed on cells (human, UniProt P18627 23-525); test: FACS on 293F cells stably expressing human LAG3
T4 construct: whole, on cells; also called CHOK1-human LAG3
T4 sequence (looked up): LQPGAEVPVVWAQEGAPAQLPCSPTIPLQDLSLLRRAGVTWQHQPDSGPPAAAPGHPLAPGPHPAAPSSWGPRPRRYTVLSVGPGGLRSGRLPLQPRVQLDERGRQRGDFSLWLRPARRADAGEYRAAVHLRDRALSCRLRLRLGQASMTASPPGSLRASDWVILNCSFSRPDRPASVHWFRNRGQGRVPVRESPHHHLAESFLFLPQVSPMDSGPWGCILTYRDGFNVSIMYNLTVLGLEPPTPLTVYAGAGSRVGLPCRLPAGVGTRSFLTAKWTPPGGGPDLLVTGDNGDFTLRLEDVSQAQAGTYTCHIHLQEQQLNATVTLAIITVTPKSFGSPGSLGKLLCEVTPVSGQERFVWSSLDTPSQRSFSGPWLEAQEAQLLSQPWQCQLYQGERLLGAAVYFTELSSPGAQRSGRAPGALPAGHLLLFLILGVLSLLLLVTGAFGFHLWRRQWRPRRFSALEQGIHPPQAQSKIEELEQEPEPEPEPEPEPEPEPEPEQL
Procedure: (§3) Briefly the antibodies were incubated with 2×10⁵ target cells at 4° C. for 1 hour. After washing, fluorescence labeled anti-mouse IgG 2nd antibody (Life Technologies) was added and incubated at 4° C. for 1 hour. Geometric median fluorescence intensity (MFI) was detected and EC₅₀ was calculated using GraphPad Prism9.0.
(§4) MFI was detected and EC₅₀ was calculated using GraphPad Prism9.0.

[5] = target: T3, hFc tagged human LAG3 ECD recombinant …; test: competitive FACS: hFc-LAG3 ECD binding to Raji cells (MHC II)
Procedure: Competitive FACS assay was used to determine whether the purified hybridoma antibodies can block LAG3 and MHC II interaction. […] After washing, dye labeled anti-human Fc 2nd antibody (Sigma) was added and incubated at 37° C. for 1 hour. Fluorescence intensity was detected.

[6] = target: T3, hFc tagged human LAG3 ECD recombinant …; test: competitive ELISA: excess competitor, biotin hFc-LAG3 ECD, coated BMS-986016
Procedure: (§5) Competitive ELISA assay was used for epitope binning of the purified hybridoma antibodies. […] After washing, HRP labeled anti-streptavidin (SA) 2nd antibody (Sigma) was added and incubated at 37° C. for 1 hour. Then, 100 μl/well of TMB solution (Biotechnology) was added. After incubation for 15 minutes at room temperature, the reaction was stopped by the addition of 50 μl of 1N HCl. OD 450 nm was read. Competition ratio was calculated.

[7] = target: T5, mouse LAG3, full length, stably expressed on CHOK1 cells (mouse, UniProt Q61790 24-521); test: FACS on CHOK1 cells expressing mouse LAG3
T5 construct: whole, on cells
T5 sequence (looked up): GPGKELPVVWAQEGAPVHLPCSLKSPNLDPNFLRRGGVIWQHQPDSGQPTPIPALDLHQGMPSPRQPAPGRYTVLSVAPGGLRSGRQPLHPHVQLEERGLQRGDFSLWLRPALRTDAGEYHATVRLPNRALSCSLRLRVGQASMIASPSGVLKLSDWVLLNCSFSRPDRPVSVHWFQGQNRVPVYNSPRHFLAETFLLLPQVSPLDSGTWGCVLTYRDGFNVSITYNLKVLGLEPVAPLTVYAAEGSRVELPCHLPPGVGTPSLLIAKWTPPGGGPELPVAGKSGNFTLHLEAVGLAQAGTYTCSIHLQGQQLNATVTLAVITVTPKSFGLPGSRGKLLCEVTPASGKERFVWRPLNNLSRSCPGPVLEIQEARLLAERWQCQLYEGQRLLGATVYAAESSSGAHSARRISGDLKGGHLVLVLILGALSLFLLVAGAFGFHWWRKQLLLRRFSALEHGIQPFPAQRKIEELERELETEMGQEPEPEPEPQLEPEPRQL
Procedure: as §3

[8] = target: T4, human LAG3, full length, stably …; test: FACS on 293F-human LAG3 cells
Procedure: as §3

[9] = target: T6, hFc tagged human LAG3 D1-D2 recombinant protein (human, UniProt P18627 23-261); test: ELISA, coated hFc-hLAG3 D1-D2
T6 construct: range 23-261; generated by Chempartner; also called hLAG3 D1-D2; not shown: human IgG Fc tag
T6 sequence (looked up): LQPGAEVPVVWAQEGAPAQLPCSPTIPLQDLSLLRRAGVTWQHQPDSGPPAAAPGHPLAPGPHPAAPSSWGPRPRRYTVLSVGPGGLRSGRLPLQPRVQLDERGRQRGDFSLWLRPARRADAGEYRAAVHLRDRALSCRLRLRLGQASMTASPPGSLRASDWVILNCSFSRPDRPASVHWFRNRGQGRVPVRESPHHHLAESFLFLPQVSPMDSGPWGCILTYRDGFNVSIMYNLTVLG

[10] = target: T3, hFc tagged human LAG3 ECD recombinant …; test: competitive ELISA: excess competitor, biotin hFc-LAG3 ECD, coated BAP-050
Procedure: as §5

[11] = target: T7, cyno LAG3, full length, stably expressed on 293F cells (cyno); test: FACS on 293F-cyno LAG3 cells, 20 nM antibody
T7 construct: whole, on cells
Procedure: as §3

[12] = target: T8, human LAG3 (form used in Octet, Biacore and HDX-MS not given) (human, UniProt P18627 23-450, limits assumed); test: BLI (Octet)
T8 sequence (looked up): T1 sequence (looked up)

[13] = target: T8, human LAG3 (form used in Octet, Biacore …); test: SPR (Biacore), 1:1 fit
Procedure: The association and dissociation curves were fit with 1:1 binding model, and the Ka/Kd/KD values for each antibody were calculated.

[14] = target: T3, hFc tagged human LAG3 ECD recombinant …; test: competitive ELISA format II: biotin hFc-LAG3 ECD binding to coated His-FGL1; remark: listed apart in the source
Procedure: as §1

[15] = target: T2, mFc tagged human LAG3 ECD recombinant …; test: competitive FACS: mFc-LAG3 ECD binding to Raji cells (MHC II); remark: listed apart in the source
Procedure: as §2

[16] = target: T4, human LAG3, full length, stably …; test: FACS on 293F cells stably expressing human LAG3; remark: listed apart in the source
Procedure: as §3, §4

Blocking ratio at 66.7 nM (%) [1]: 26.7%
IC50 [2]: 4.5 nM
TOP blocking (%) [2]: 91.2%
IC50 [3]: 6.13 nM
TOP blocking (%) [3]: 78.3%
EC50 [4]: 2 nM
TOP MFI [4]: 302
B1: 027c (antibody, human IgG4, V domains shown)
VH: EVKILQSGGGLVQPGGSLKLSCAASGIDFSRYWMSWVRRTPGKGLEWIGEINPDSSTINYAPSLKDKFIISRDNAKNTLYLQMSKVRSEDTALYYCARLGIIPTYHYGSSGYYYAMDYWGQGTSVTVSS
VL: DVLMTQTPLSLPVSLGDRASISCRSSQTIVHGNGHTSLEWYLQKPGQSPQLLIYKVSNRFSGVPDRFSASGSGTDFTLTISRVEAEDLGVYYCFQVSHVPYTFGGGTKLEIK
notes: human IgG4 S228P / kappa chimeric antibody; also called chimeric antibody 027; not shown: human kappa light chain constant region (pcDNA3.4-hIgGk vector)

Blocking ratio at 66.7 nM (%) [1]: 14%
IC50 [2]: 3.6 nM
TOP blocking (%) [2]: 90.4%
IC50 [3]: 35.9 nM
TOP blocking (%) [3]: 12.6%
EC50 [4]: 1.3 nM
TOP MFI [4]: 249
B2: 047c (antibody, human IgG4, V domains shown)
VH: QVQLQQSGAELARPGASVKLSCKASGYSFTSYGVNWVKQRTGQGLEWIGEIYPRSGNTYYNERFGDKATLTADKSSSTAYMEIRSLTSEDSAVYFCARGGTYDGYYYAMDYWGQGTSVTVSS
VL: DIVLTQSPASLAVSLGQRATISCRASESVDNFGSSFMHWYQQKPGQAPKLLIYRASNLESGIPARFSGSGSRTDFTLTINPVETDDVATYYCQQVNKDPRTFGGGTKLEIK
notes: human IgG4 S228P / kappa chimeric antibody; also called chimeric antibody 047; not shown: human kappa light chain constant region (pcDNA3.4-hIgGk vector)

IC50 [5]: 4 nM
TOP blocking (%) [5]: 98.6%
% competition [6]: 6.9%
binding result [7]: no binding
EC50 [8]: 5.52 nM
EC50 [9]: 0.02 nM
% competition [10]: 57.1%
MFI at 20 nM [11]: 105 MFI
B3: Antibody 021 (antibody, V domains shown)
VH: DIQLQESGPGLVKPSQSLSLTCSVTGYSITSGYYWNWIRQFPGNKLEWMGDISYDGGNNYNPSLKNRISITRDTSKNQFFLKLNSVTTEDTATYYCARDITLTGAMDYWGQGTSVTVSS
VL: B2 VL with F32Y, S34I, K43R, A47P, V95S, R100Y
notes: mouse hybridoma antibody

Kd [12]: 0.537 nM
koff [12]: 0.000164 s⁻¹
kon [12]: 305000 M⁻¹ s⁻¹
Kd [13]: 0.242 nM
koff [13]: 0.000402 s⁻¹
kon [13]: 1.66e+06 M⁻¹ s⁻¹
IC50 [14]: 1.7 nM
TOP blocking (%) [14]: 82.2%
IC50 [15]: 5.9 nM
TOP blocking (%) [15]: 99.2%
EC50 [16]: 0.4 nM
TOP MFI [16]: 3180
B4: hu023.04 (antibody, human IgG4, V domains shown)
VH: QVQLVQSGAEVKKPGASVKVSCKASGYTFTESPMNWVRQAPGQGFEWMGIIYTDTGEPTYAEEFKGRVTMTRDTSTSTVYMELSSLRSEDTAVYFCASDYGSILYWYFDVWGQGTLVTVSS
VL: DIQMTQSPSSLSASVGDRVTITCKASQDVSTAVAWYQQKPGKAPKLLIYSASYRYTGVPSRFSGSGSGTDFTLTISSLQPEDFATYYCQQHYNAPPTFGQGTKLEIK
notes: humanized from 023c

Kd [12]: 0.0782 nM
koff [12]: 2.37e-05 s⁻¹
kon [12]: 303000 M⁻¹ s⁻¹
Kd [13]: 0.0205 nM
koff [13]: 9.1e-05 s⁻¹
kon [13]: 4.43e+06 M⁻¹ s⁻¹
IC50 [14]: 1.2 nM
TOP blocking (%) [14]: 83.9%
IC50 [15]: 5.8 nM
TOP blocking (%) [15]: 99.3%
EC50 [16]: 0.17 nM
TOP MFI [16]: 3140
B5: hu023.11 (antibody, human IgG4, V domains shown)
VH: QVQLVQSGPELKKPGASVKVSCKASGYTFTESPMNWVRQAPGQGFEWMGIIYTDTGEPTYAEEFKGRFVFSLDTSVSTAYLQISSLKAEDTAVYFCVSDYGSILYWYFDVWGQGTLVTVSS
VL: B4 VL with A43S, L73F
notes: humanized from 023c
